Experimental data reported in patent US20190062394A1.

Assays:
Destabilized IL-12 #2 [1] = system: Destabilized IL-12 #2
Destabilized IL-12 #5 [2] = system: Destabilized IL-12 #5
Destabilized IL-12 #2 [3] = assay: cell-based or functional assay
Destabilized IL-12 #5 [4] = assay: cell-based or functional assay
Destabilized IL-12 #11 = biological target: T1, Destabilized IL-12 #11
T1 chain: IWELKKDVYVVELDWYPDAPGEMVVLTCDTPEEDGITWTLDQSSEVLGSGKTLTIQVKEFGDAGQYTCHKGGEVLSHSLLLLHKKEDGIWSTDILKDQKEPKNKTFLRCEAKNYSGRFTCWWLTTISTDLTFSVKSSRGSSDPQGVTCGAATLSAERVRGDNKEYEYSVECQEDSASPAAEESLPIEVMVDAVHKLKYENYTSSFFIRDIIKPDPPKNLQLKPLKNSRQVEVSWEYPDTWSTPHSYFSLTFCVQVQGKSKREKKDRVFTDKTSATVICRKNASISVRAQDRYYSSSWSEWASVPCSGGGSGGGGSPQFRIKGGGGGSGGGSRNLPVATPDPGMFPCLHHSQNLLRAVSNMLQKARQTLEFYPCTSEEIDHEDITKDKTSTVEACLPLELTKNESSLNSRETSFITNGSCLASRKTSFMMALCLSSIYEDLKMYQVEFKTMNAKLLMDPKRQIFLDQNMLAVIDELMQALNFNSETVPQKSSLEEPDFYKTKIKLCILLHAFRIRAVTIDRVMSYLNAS

Destabilized IL-12 #12 = biological target: T2, Destabilized IL-12 #12
T2 chain: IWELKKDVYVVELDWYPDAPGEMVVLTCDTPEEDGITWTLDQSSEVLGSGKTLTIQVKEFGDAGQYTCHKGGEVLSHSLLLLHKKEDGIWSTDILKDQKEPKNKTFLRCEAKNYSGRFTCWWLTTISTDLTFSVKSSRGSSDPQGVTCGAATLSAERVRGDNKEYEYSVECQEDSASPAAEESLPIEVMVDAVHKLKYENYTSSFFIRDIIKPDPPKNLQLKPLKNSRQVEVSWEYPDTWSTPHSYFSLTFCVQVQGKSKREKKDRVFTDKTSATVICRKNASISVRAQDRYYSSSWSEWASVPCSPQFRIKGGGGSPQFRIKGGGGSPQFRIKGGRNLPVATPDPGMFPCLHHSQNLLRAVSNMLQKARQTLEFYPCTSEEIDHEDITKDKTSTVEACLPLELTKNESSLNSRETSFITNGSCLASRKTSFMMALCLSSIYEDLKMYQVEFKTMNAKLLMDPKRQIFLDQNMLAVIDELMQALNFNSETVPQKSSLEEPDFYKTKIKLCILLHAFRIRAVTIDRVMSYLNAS

Destabilized IL-12 #18 = biological target: T3, Destabilized IL-12 #18
T3 chain: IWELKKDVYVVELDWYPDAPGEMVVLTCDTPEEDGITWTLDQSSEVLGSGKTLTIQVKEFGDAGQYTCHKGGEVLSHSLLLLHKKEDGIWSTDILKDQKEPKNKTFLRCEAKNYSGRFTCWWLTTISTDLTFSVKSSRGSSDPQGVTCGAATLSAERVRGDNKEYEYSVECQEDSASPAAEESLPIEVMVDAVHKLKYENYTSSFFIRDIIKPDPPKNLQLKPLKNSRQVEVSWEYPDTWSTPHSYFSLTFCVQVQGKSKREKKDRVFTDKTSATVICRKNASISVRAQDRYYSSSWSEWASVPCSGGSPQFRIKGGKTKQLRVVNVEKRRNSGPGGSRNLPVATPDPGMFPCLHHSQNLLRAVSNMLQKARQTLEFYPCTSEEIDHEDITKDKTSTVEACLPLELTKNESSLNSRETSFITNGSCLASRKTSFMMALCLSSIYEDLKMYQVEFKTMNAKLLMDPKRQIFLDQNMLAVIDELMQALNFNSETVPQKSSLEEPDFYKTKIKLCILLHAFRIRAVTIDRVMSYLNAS

Destabilized IL-12 #21 = biological target: T4, Destabilized IL-12 #21
T4 chain: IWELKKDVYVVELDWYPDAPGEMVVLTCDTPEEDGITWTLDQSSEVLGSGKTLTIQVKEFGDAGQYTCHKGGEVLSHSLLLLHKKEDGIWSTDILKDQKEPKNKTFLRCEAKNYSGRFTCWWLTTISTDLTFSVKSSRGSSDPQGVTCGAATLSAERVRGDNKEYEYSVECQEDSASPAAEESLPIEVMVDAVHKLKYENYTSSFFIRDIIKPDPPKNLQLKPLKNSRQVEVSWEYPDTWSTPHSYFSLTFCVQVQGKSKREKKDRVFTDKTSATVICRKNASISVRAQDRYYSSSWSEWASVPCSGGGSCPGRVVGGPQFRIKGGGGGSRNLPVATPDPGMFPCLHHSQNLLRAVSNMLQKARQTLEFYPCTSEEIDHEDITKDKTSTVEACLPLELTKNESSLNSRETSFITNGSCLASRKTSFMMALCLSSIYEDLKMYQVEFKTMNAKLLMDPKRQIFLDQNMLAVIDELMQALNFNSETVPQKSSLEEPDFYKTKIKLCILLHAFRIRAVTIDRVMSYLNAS

Destabilized IL-12 #27 = biological target: T5, Destabilized IL-12 #27
T5 chain: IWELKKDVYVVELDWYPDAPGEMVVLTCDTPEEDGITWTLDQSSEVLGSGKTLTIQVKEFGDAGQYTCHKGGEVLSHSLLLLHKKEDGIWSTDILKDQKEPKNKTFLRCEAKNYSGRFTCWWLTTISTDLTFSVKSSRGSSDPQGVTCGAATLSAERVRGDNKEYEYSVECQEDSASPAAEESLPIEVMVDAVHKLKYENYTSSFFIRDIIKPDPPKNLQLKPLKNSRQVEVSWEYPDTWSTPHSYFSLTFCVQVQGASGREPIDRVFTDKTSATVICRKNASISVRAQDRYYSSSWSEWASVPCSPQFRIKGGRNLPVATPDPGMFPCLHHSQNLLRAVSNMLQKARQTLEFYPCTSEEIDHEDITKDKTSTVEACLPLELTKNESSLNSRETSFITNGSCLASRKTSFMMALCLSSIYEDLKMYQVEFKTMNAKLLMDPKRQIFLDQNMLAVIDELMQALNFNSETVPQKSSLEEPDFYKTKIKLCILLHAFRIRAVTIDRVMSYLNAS

Sequence of Destabilized IL-12 #4 (chain, as listed by the source): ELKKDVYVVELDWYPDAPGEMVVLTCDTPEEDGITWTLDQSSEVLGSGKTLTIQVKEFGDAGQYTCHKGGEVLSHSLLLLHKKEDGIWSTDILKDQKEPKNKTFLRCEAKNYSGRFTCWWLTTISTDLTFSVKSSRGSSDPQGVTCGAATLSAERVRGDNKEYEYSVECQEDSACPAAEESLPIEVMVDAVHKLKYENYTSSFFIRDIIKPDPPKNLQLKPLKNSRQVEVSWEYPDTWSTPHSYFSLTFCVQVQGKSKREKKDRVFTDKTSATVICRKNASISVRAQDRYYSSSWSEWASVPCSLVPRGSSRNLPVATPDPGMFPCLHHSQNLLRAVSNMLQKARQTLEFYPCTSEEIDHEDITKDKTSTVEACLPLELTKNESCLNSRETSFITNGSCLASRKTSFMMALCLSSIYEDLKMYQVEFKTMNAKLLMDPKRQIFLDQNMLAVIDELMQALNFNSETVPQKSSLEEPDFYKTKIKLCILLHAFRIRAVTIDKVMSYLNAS

Molecule: thrombin
- fold reduction in biological activity (NK-92 assay) after thrombin digestion, against wild-type single chain IL-12 (Destabilized IL-12 #2 [1]): (~11 fold decrease*)
- thrombin cleavage (67 U/mL, 20 hours, 37 degrees C), anti-p35 immunoblot, reducing conditions (Destabilized IL-12 #2 [1]): Under reducing conditions, thrombin cleavage of all three IL-12 mutants was detected
- thrombin cleavage (67 U/mL, 20 hours, 37 degrees C), anti-p40 immunoblot, reducing conditions (Destabilized IL-12 #2 [1]): Under reducing conditions, thrombin cleavage of all three IL-12 mutants was detected
- fold reduction in biological activity (NK-92 assay) after thrombin digestion, against wild-type single chain IL-12 (Destabilized IL-12 #4): (~1.5 fold decrease*)
- thrombin cleavage (67 U/mL, 20 hours, 37 degrees C), anti-p35 immunoblot, non-reducing conditions (Destabilized IL-12 #4): under non-reducing conditions, thrombin cleavage of Destabilized #4 was not detected
- thrombin cleavage (67 U/mL, 20 hours, 37 degrees C), anti-p35 immunoblot, reducing conditions (Destabilized IL-12 #4): Under reducing conditions, thrombin cleavage of all three IL-12 mutants was detected
- thrombin cleavage (67 U/mL, 20 hours, 37 degrees C), anti-p40 immunoblot, non-reducing conditions (Destabilized IL-12 #4): under non-reducing conditions, thrombin cleavage of Destabilized #4 was not detected
- thrombin cleavage (67 U/mL, 20 hours, 37 degrees C), anti-p40 immunoblot, reducing conditions (Destabilized IL-12 #4): Under reducing conditions, thrombin cleavage of all three IL-12 mutants was detected
- fold reduction in biological activity (NK-92 assay) after thrombin digestion, against wild-type single chain IL-12 (Destabilized IL-12 #5 [2]): (~9 fold decrease*)
- thrombin cleavage (67 U/mL, 20 hours, 37 degrees C), anti-p35 immunoblot, reducing conditions (Destabilized IL-12 #5 [2]): Under reducing conditions, thrombin cleavage of all three IL-12 mutants was detected
- thrombin cleavage (67 U/mL, 20 hours, 37 degrees C), anti-p40 immunoblot, reducing conditions (Destabilized IL-12 #5 [2]): Under reducing conditions, thrombin cleavage of all three IL-12 mutants was detected

Molecule: thrombin (enzyme)
- thrombin dose needed to reduce IFNg secretion of NK-92 cells (HTRF) (Destabilized IL-12 #2 [3]): 10 U/mL
- thrombin dose needed to reduce IFNg secretion of NK-92 cells (HTRF) (Destabilized IL-12 #5 [4]): 10 U/mL

B1: human Plasmin (23.3 Units/mg; Millipore) (protein)
chain: KVYLSECKTGNGKNYRGTMSKTKNGITCQKWSSTSPHRPRFSPATHPSEGLEENYCRNPDNDPQGPWCYTTDPEKRYDYCDILECEEECMHCSGENYDGKISKTMSGLECQAWDSQSPHAHGYIPSKFPNKNLKKNYCRNPDRELRPWCFTTDPNKRWELCDIPRCTTPPPSSGPTYQCLKGTGENYRGNVAVTVSGHTCQHWSAQTPHTHNRTPENFPCKNLDENYCRNPDGKRAPWCHTTNSQVRWEYCKIPSCDSSPVSTEQLAPTAPPELTPVVQDCYHGDGQSYRGTSSTTTTGKKCQSWSSMTPHRHQKTPENYPNAGLTMNYCRNPDADKGPWCFTTDPSVRWEYCNLKKCSGTEASVVAPPPVVLLPDVETPSEEDCMFGNGKGYRGKRATTVTGTPCQDWAAQEPHRHSIFTPETNPRAGLEKNYCRNPDGDVGGPWCYTTNPRKLYDYCDVPQCAAPSFDCGKPQVEPKKCPGRVVGGCVAHPHSWPWQVSLRTRFGMHFCGGTLISPEWVLTAAHCLEKSPRPSSYKVILGAHQEVNLEPHVQEIEVSRLFLEPTRKDIALLKLSSPAVITDKVIPACLPSPNYVVADRTECFITGWGETQGTFGAGLLKEAQLPVIENKVCNRYEFLNGRVQSTELCAGHLAGGTDSCQGDSGGPLVCFEKDKYILQGVTSWGLGCARPNKPGVYVRVSRFVTWIEGVMRNN
- proteolytic digestion, 1 hour, reducing SDS-PAGE and anti-p40 Western blot (Destabilized IL-12 #11): Partial digestion of DSIL-12#11, DSIL-12#12, DSIL-12#21 and DSIL-12#18 was detected with as little as 0.05 mU of plasmin
- proteolytic digestion, 1 hour, reducing SDS-PAGE and anti-p40 Western blot (Destabilized IL-12 #12): Partial digestion of DSIL-12#11, DSIL-12#12, DSIL-12#21 and DSIL-12#18 was detected with as little as 0.05 mU of plasmin
- proteolytic digestion, 1 hour, reducing SDS-PAGE and anti-p40 Western blot (Destabilized IL-12 #18): Partial digestion of DSIL-12#11, DSIL-12#12, DSIL-12#21 and DSIL-12#18 was detected with as little as 0.05 mU of plasmin
- proteolytic digestion, 1 hour, reducing SDS-PAGE and anti-p40 Western blot (Destabilized IL-12 #21): Partial digestion of DSIL-12#11, DSIL-12#12, DSIL-12#21 and DSIL-12#18 was detected with as little as 0.05 mU of plasmin
- proteolytic digestion, 1 hour, reducing SDS-PAGE and anti-p40 Western blot (Destabilized IL-12 #27): 2.5 mU of plasmin were required for partial digestion of DSIL-12#27
